Reference: paper PMC3727933 (Molecular Biology of the Cell, 2013)

Molecular target: the molecule itself
Assay: SEC

B1: Nwk^1-428∆tips (domain or fragment, Drosophila, UniProt X2JAU8 1-428, looked up)
chain: MQPPPRKGNYVKFLKNLHTEQVAKLQLKNQHECDLLEDIRQFTIKRSAVEKSYSESLLKISSQYLNKKIPNIPDIKMEGMEERWNMWSVWRTVLEENEKLARARLAAIEVFQQQIADEAKVLRDYKLAIAKRSLAGIVNVQKELHLSVGDVDKTKKSYFDEEHCAHDVRDKARDIEEKLKNLITSLQKNSARVTSRKELLEEKSSGARNDYVLSLAAANAHQNRYFTVDLQTTMTTMENYVFERVAEYLMLMGRTELLTCSATQNSFGKIRDQAQQLTREYNLQCCYLFYPVLKQHIQYDFEACDNDPVRKVTAEHESAAETLTKEAKNLAGRVVKENASIRENAKKLALCQSLRDSGQRTDPNDPNGPDLDTKIEEFRDQIRRSETEKTKAEACLQCLRDGGINVDEWVQEAENMGVQEL
- stoichiometry N: 2
